Experimental findings from paper doi:10.1101/648071 (bioRxiv, 2019) are described below.

“And” between values parts separate entries of the source, which are not always exact repeats. Identical values can stand only once. Like-named read-outs stand apart in the source and are kept apart here.

For series [1], the target named is OrgB, C-terminal His-tag (co-expressed with spaO) (Salmonella Typhimurium strain SL1344). The experiment in a line: native MS.
The target of series [2] is InvC, full-length, C-terminal Strep-tag (Salmonella Typhimurium strain SL1344) (UniProt P0A1B9). The experiment in a line: native MS.
Series [3] has as its target OrgB (co-expressed with Strep-tagged InvC or InvC fragments) (Salmonella Typhimurium strain SL1344). The experiment in a line: native MS.
Series [4] has as its target SpaO-2SpaOC heterotrimer (Salmonella Typhimurium strain SL1344) (UniProt P40699). Description: native MS.
The target is the same in series [5]. Description: native MS. This is another data set of the same source.
The target of series [6] is T1, SpaO N-terminal domain (SpaO 1-145) (Salmonella Typhimurium strain SL1344, UniProt P40699 1-145).
T1 sequence (looked up): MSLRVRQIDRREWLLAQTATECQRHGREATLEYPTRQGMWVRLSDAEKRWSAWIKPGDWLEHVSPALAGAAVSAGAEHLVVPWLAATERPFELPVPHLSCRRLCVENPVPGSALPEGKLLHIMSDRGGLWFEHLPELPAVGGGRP
Description: SEC-MALS. (SEC sorts molecules by how far they enter the pores of the column.)

Series [7] deals with T1, SpaO N-terminal domain (SpaO 1-145). Description: native MS.
Series [8] has as its target T2, SpaO SPOA1-SPOA2 construct (SpaO 140-297) (Salmonella Typhimurium strain SL1344, UniProt P40699 140-297).
T2 sequence (looked up): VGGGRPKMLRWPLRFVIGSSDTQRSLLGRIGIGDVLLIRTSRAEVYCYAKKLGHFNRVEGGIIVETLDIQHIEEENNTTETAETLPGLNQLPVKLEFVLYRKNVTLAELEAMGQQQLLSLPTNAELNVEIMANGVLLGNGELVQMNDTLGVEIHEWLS
Description: native MS.

The series “native MS” deals with the molecule itself. The experiment in a line: native MS.
In series [9] the target is T1, SpaO N-terminal domain (SpaO 1-145). Description: ITC. On the technique in general: ITC needs no label: the signal is the heat of the interaction.
In series [10] the target is T3, SpaO, full-length, C-terminal Strep-tag (Salmonella Typhimurium strain SL1344, UniProt P40699 1-303).
T3 sequence (looked up): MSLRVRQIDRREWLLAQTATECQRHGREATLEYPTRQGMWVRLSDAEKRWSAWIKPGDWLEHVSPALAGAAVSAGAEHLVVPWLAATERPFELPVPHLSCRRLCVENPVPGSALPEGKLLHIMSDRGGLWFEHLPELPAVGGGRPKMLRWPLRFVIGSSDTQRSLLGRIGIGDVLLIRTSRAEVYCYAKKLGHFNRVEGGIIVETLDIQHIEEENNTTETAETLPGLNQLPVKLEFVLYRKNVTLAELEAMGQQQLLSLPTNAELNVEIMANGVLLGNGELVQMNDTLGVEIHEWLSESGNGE
Description: native MS.

In series [11] the target is T4, SpaO in the SpaO/SpaOC/OrgB/InvC complex (spaO+orgB+invC co-expression) (Salmonella Typhimurium strain SL1344, UniProt P40699 1-303).
T4 sequence (looked up): T3 sequence (looked up)
The experiment in a line: native MS.

Sequence of InvC, full-length, C-terminal Strep-tag (Salmonella Typhimurium strain SL1344) (P0A1B9 whole entry, the tested form may be a part): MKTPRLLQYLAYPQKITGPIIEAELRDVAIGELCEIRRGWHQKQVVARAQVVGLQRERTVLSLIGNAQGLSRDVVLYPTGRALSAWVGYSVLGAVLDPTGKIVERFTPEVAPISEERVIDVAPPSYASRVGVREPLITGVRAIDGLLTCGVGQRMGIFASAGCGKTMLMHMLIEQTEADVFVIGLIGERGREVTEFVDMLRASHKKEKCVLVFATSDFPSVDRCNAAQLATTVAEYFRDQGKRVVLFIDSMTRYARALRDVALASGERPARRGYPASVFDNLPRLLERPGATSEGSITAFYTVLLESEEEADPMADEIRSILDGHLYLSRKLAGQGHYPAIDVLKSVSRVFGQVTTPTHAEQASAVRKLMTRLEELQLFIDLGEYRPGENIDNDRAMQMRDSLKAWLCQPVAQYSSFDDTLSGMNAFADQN

For orientation: stoichiometry N means the number of molecules, sites or subunits per partner or assembly. In series [1], “OrgB, C-terminal His-tag (co-expressed with spaO) (natural protein)” registered a stoichiometry N of 2.

Molecule “OrgB (co-expressed with Strep-tagged InvC or InvC fragments) (natural protein)” had a stoichiometry N (OrgB per InvC) in [2] of 2. The molecule also returned a stoichiometry N in series [3] of 2.

In the case of “SpaO-2SpaOC heterotrimer (from UniProt P40699 1-303; P40699 203-303) (complex)”, the stoichiometry N in [4] and in [5] was 2 each time.

B1: SpaOC, short product of the spaO gene, C-terminal Strep-tag (natural protein, Salmonella Typhimurium strain SL1344, UniProt P40699 203-303, looked up)
chain: METLDIQHIEEENNTTETAETLPGLNQLPVKLEFVLYRKNVTLAELEAMGQQQLLSLPTNAELNVEIMANGVLLGNGELVQMNDTLGVEIHEWLSESGNGE
In general, Kd refers to the constant that tells how readily two partners part at equilibrium. Regarding B1, the “stoichiometry N” value is 2 SpaOC per SpaO(1-145) in series [6]; 4 SpaOC per SpaO(1-145) in series [7]; 2 SpaOC per SpaO(140-297) in [8]; 2 and 4 in “native MS”; 2 SpaOC per SpaO in series [10]. In series [9], binding was put at a Kd of 1040 ± 210 nM.

B2: SpaOC in the SpaO/SpaOC/OrgB/InvC complex (spaO+orgB+invC co-expression) (natural protein, Salmonella Typhimurium strain SL1344, UniProt P40699 203-303, looked up)
chain: B1 chain
For the molecule B2, the “stoichiometry N” value in series [11] was 2 SpaOC per SpaO.
